Tests used:
[1] = molecular target: T1, binding of peptide A to HIV-derived target peptides #SA2, #12, #18 (Human immunodeficiency virus type 1 group M subtype B, UniProt P03377); assay: Competition of the binding of biotin-labelled peptide A to HIV-derived peptides
T1 construct: His Glu Asp Ile Ile Ser Leu Trp Asp Gln Ser Leu Lys Pro Cys, Env; 105-119; Ile Asn Asn Thr Tyr THr Ser, Env; 621-645; Leu Asp Lys Trp Ala Ser, Env; 650-673; made in house; host or cells: chemical synthesis (synthetic peptides)
T1 sequence (P03377 621-645, other chains not shown): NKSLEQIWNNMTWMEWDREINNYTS
Description: This interaction was competed by peptide A itself, by the envelope peptides #SA2 Sequence I.D. #20, #12 Sequence I.D. #22 and #18 Sequence I.D. #21 but not by peptide #53 Sequence I.D. […]. Therefore, the three HIV-derived peptides seem to share functional homology with respect to the interaction with CFH since they all bind to the same region on SEQ. ID NO: 1.

[2] = molecular target: CFH (Homo sapiens, UniProt P08603); settings: described in earlier publications of Pinter et al.; cited from earlier work
CFH, sequence (P08603 19-1231): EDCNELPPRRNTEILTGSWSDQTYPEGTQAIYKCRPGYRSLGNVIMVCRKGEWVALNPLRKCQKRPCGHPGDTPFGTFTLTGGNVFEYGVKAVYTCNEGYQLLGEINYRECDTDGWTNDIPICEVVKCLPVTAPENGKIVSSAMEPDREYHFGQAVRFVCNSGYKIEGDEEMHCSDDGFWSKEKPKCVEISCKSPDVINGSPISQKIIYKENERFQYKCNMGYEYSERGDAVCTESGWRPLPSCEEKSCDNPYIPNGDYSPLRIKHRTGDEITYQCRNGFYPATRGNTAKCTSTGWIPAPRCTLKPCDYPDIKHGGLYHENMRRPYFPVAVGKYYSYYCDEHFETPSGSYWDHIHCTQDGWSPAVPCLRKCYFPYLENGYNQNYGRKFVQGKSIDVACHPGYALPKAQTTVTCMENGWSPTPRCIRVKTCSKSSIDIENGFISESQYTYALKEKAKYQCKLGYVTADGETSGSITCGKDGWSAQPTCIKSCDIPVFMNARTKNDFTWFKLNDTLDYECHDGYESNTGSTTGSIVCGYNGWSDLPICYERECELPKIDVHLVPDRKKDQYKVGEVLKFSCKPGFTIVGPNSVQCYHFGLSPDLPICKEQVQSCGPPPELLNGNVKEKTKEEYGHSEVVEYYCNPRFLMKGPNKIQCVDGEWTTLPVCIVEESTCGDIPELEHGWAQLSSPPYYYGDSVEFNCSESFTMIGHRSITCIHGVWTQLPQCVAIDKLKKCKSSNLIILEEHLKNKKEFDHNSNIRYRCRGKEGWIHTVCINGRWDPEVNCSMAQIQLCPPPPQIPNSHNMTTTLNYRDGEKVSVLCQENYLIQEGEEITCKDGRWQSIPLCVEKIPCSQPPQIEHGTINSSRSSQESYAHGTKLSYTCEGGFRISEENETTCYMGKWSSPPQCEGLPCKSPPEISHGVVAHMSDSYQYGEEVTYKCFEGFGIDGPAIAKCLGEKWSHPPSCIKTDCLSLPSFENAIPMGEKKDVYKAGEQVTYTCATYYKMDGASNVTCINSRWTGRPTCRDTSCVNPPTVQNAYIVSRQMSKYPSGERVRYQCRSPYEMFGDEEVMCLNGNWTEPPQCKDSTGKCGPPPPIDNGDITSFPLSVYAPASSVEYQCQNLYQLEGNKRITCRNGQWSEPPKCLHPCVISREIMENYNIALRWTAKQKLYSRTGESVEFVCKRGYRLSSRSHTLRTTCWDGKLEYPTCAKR

[3] = molecular target: T2, binding of CFH to the HIV envelope peptides #SA2 (gp120), #18 and #12 (gp41) (Human immunodeficiency virus type 1 group M subtype B, UniProt P03377); settings: target peptides preincubated with competitor, washed, before CFH
T2 construct: His Glu Asp Ile Ile Ser Leu Trp Asp Gln Ser Leu Lys Pro Cys, Env; 105-119; Ile Asn Asn Thr Tyr THr Ser, Env; 621-645; Leu Asp Lys Trp Ala Ser, Env; 650-673; made in house; host or cells: Env peptides: chemical synthesis; CFH: purified from normal human plasma (or fresh plasma used as the CFH source)
Procedure: Synthetic peptides and recombinant proteins were dissolved in Carbonate-bicarbonate buffer, 50 mM, pH 9.2 at 50 μg/ml (micrograms per milliliter) and 10 μg/ml, respectively, distributed in 100 μl aliquots into flat-bottomed 96-well ELISA plates (Greiner, Germany) and left at 37° C. for 3 hours. The plates were then washed three times in phosphate-buffered saline (PBS) and the wells were overcoated with a 3% (w/v) solution of bovine serum albumin (BSA) in PBS. The CFH source (either from fresh plasma or from plasma subjected to subsequent purification steps), was diluted to the appropriate concentration (1 mg/ml) in PBS-BT (=PBS containing 1% BSA and 1% Tween 20), pH 7.0 and exposed to the solid phase for one hour at 37° C. After washing in PBS+1% Tween 20 (=PBS-T), bound CFH was detected by the use of specific, biotin-labelled MAb 5H5, Pinter et al., AIDS Research & Human Retroviruses 11: 971, and peroxidase-labelled streptavidin (Sigma, Italy). The reaction was developed with o-phenylene-diamine/H2 O2 for fifteen minutes and then stopped by the addition of 4N H2 SO4. Absorbance was detected at […] with a MT450 microplate reader (BioRad).
Along with the above-described assay, a preincubation assay was also conducted with peptides. […] The solid phases were washed in PBS-T and CFH was detected with the biotin-labelled MAb 5H5 as previously described.

[4] = molecular target: T2, binding of CFH to the HIV envelope peptides #SA2 (gp120), #18 and #12 (gp41); settings: previous work, Pinter et al., AIDS Research & Human Retroviruses 11:577; cited from earlier work
[5] = molecular target: T2, binding of CFH to the HIV envelope peptides #SA2 (gp120), #18 and #12 (gp41); settings: competitor added simultaneously with CFH; ELISA, solid-phase peptides #SA2, #18, #12
[6] = molecular target: T3, gp41-derived peptide #12 (Env. 650-673) (Human Immunodeficiency Virus); assay: competition ELISA against CFH binding to the immobilised envelope peptide
T3 peptide: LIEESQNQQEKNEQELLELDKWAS

[7] = molecular target: T4, gp41-derived peptide #18 (Env. 621-645) (Human Immunodeficiency Virus); assay: as above
T4 peptide: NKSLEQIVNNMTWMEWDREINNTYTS

[8] = molecular target: T5, gp120-derived peptide #SA2 (Env. 105-119) (Human Immunodeficiency Virus); assay: as above
T5 peptide: HEDIISLWDQSLKPC

[9] = molecular target: T3, gp41-derived peptide #12 (Env. 650-673); assay: competition ELISA against CFH; inhibition due to interaction of peptide A with the solid phase (preincubation gave the same effect)
[10] = molecular target: T4, gp41-derived peptide #18 (Env. 621-645); assay: as above
[11] = molecular target: T5, gp120-derived peptide #SA2 (Env. …); assay: as above

For “Asn Lys Ser Leu Glu Gln Ile Val Asn Asn Met Thr Trp Met Glu Trp Asp Arg Glu Ile Asn Asn Thr Tyr THr Ser (NKSLEQIVNNMTWMEWDREINNTYTS) [#18, gp41-derived HIV envelope peptide, Env; 621-645]”, the “competition of the binding of biotin-labelled peptide A to HIV-derived peptides” value [1] is given as “competed” and the “CFH binding to the HIV envelope peptide” value [2] is given as “targets of CFH binding”.

In the case of Heparin, the “competition with the binding of CFH to the HIV envelope peptides after preincubation” value [3] is listed as “inactive”, the “inhibition of the binding of CFH to HIV and to the target peptides” value [4] is listed as “inhibited” and the “competition with the binding of CFH to the HIV envelope peptides” value [5] is listed as “competed”.

IRYRCRGKEGWIHTVCINGRWDPEVNCS [Peptide B]: no binding (tested: 0 to 50 µg/ml) [6]; no binding (tested: 0 to 50 µg/ml) [7]; no binding (tested: 0 to 50 µg/ml) [8].

KEFDHNSNIRYRCR [peptide b11]: binds [6]; binds [7]; binds [8].

AIDKLKKCKSSNLIILEEHLKNKKEFDHNS [Peptide A]: binds [9]; binds [10]; binds [11].
